Test results: US20240342215A1 (Regeneron, published 2024)

B1: VHH-TCR with a VHH added to the TRB separated by a marsupial mu linker (LEKT); CD33.VHH-mLNK-TRB-P2A-TRA (SEQ ID NO: 91) (TCR)
TCR beta: EVQLVESGGGEVQPGGSLRLSCAASRSSGIDVMGWYRQAPGKERELVAEISGVGDTNYAASLADRFTVSRDNAKNTVYLQMSSLRAEDTAVYYCNAHSFLDLVGAWGQGTLVTVKPLEKTDSGVTQTPKHLITATGQRVTLRCSPRSGDLSVYWYQQSLDQGLQFLIQYYNGEERAKGNILERFSAQQFPDLHSELNLSSLELGDSALYFCASSGGDGDEQFFGPGTRLTVLEDLKNVFPPEVAVFEPSKAEIAHTQKATLVCLATGFYPDHVELSWWVNGKEVHSGVSTDPQPLKEQPALNDSRYCLSSRLRVSATFWQNPRNHFRCQVQFYGLSENDEWTQDRAKPVTQIVSAEAWGRADCGITSASYHQGVLSATILYEILLGKATLYAVLVSALVLMAMVKRKDSRG
TCR alpha: AQKITQTQPGMFVQEKEAVTLDCTYDTSDPSYGLFWYKQPSSGEMIFLIYQGSYDQQNATEGRYSLNFQKARKSANLVISASQLGDSAMYFCAMSGGYTGGFKTIFGAGTRLFVKANIQNPDPAVYQLRDSKSSDKSVCLFTDFDSQTNVSQSKDSDVYITDKTVLDMRSMDFKSNSAVAWSNKSDFACANAFNNSIIPEDTFFPSSDVPCDVKLVEKSFETDTNLNFQNLLVIVLRILLLKVAGFNLLMTLRLWSS
B2: VHH-TCR with a VHH added to the TRB separated by a mu linker+G4S; CD33.VHH-mLNK.1xG4S-TRB-P2A-TRA (SEQ ID NO: 92) (TCR)
TCR beta: EVQLVESGGGEVQPGGSLRLSCAASRSSGIDVMGWYRQAPGKERELVAEISGVGDTNYAASLADRFTVSRDNAKNTVYLQMSSLRAEDTAVYYCNAHSFLDLVGAWGQGTLVTVKPLEKTGGGGSDSGVTQTPKHLITATGQRVTLRCSPRSGDLSVYWYQQSLDQGLQFLIQYYNGEERAKGNILERFSAQQFPDLHSELNLSSLELGDSALYFCASSGGDGDEQFFGPGTRLTVLEDLKNVFPPEVAVFEPSKAEIAHTQKATLVCLATGFYPDHVELSWWVNGKEVHSGVSTDPQPLKEQPALNDSRYCLSSRLRVSATFWQNPRNHFRCQVQFYGLSENDEWTQDRAKPVTQIVSAEAWGRADCGITSASYHQGVLSATILYEILLGKATLYAVLVSALVLMAMVKRKDSRG
TCR alpha: B1 TCR alpha
B3: scFv-based CAR targeting human BCMA (SEQ ID NO: 101) (other)
chain: DIVLTQSPPSLAMSLGKRATISCRASESVTILGSHLIHWYQQKPGQPPTLLIQLASNVQTGVPARFSGSGSRTDFTLTIDPVEEDDVAVYYCLQSRTIPRTFGGGTKLEIKGSTSGSGKPGSGEGSTKGQIQLVQSGPELKKPGETVKISCKASGYTFTDYSINWVKRAPGKGLKWMGWINTETREPAYAYDFRGRFAFSLETSASTAYLQINNLKYEDTATYFCALDYSYAMDYWGQGTSVTVSSAAATTTPAPRPPTPAPTIASQPLSLRPEACRPAAGGAVHTRGLDFACDIYIWAPLAGTCGVLLLSLVITLYCKRGRKKLLYIFKQPFMRPVQTTQEEDGCSCRFPEEEEGGCELRVKFSRSADAPAYQQGQNQLYNELNLGRREEYDVLDKRRGRDPEMGGKPRRKNPQEGLYNELQKDKMAEAYSEIGMKGERRRGKGHDGLYQGLSTATKDTYDALHMQALPPR
notes: Chimeric antigen receptor on transduced T cells; also called anti-BCMA CAR; BCMA scFv CAR
B4: VHH-TCR with a VHH added to the TRA separated by a mu linker (LEKT)+G4S; TRB-P2A-CD33.VHH-mLNK.1xG4S-TRA (SEQ ID NO: 94) (TCR)
TCR beta: DSGVTQTPKHLITATGQRVTLRCSPRSGDLSVYWYQQSLDQGLQFLIQYYNGEERAKGNILERFSAQQFPDLHSELNLSSLELGDSALYFCASSGGDGDEQFFGPGTRLTVLEDLKNVFPPEVAVFEPSKAEIAHTQKATLVCLATGFYPDHVELSWWVNGKEVHSGVSTDPQPLKEQPALNDSRYCLSSRLRVSATFWQNPRNHFRCQVQFYGLSENDEWTQDRAKPVTQIVSAEAWGRADCGITSASYHQGVLSATILYEILLGKATLYAVLVSALVLMAMVKRKDSRG
TCR alpha: EVQLVESGGGEVQPGGSLRLSCAASRSSGIDVMGWYRQAPGKERELVAEISGVGDTNYAASLADRFTVSRDNAKNTVYLQMSSLRAEDTAVYYCNAHSFLDLVGAWGQGTLVTVKPLEKTGGGGSAQKITQTQPGMFVQEKEAVTLDCTYDTSDPSYGLFWYKQPSSGEMIFLIYQGSYDQQNATEGRYSLNFQKARKSANLVISASQLGDSAMYFCAMSGGYTGGFKTIFGAGTRLFVKANIQNPDPAVYQLRDSKSSDKSVCLFTDFDSQTNVSQSKDSDVYITDKTVLDMRSMDFKSNSAVAWSNKSDFACANAFNNSIIPEDTFFPSSDVPCDVKLVEKSFETDTNLNFQNLLVIVLRILLLKVAGFNLLMTLRLWSS
B5: engineered dual-targeting TCR (VHH-TCR): MAGEA4-reactive, HLA-A2-restricted TCR embedded with a VHH targeting human CD33; TRB-P2A-CD33.VHH-mLNK-TRA (SEQ ID NO: … (TCR)
TCR beta: B4 TCR beta
TCR alpha: EVQLVESGGGEVQPGGSLRLSCAASRSSGIDVMGWYRQAPGKERELVAEISGVGDTNYAASLADRFTVSRDNAKNTVYLQMSSLRAEDTAVYYCNAHSFLDLVGAWGQGTLVTVKPLEKTAQKITQTQPGMFVQEKEAVTLDCTYDTSDPSYGLFWYKQPSSGEMIFLIYQGSYDQQNATEGRYSLNFQKARKSANLVISASQLGDSAMYFCAMSGGYTGGFKTIFGAGTRLFVKANIQNPDPAVYQLRDSKSSDKSVCLFTDFDSQTNVSQSKDSDVYITDKTVLDMRSMDFKSNSAVAWSNKSDFACANAFNNSIIPEDTFFPSSDVPCDVKLVEKSFETDTNLNFQNLLVIVLRILLLKVAGFNLLMTLRLWSS
B6: MAGEA4-reactive, HLA-A2-restricted TCR embedded with tandem VHHs targeting human CD33 and CLL1; TRB-P2A-CLL1-CD33.VHH-mLNK.1xG4S-TRA (SEQ ID NO: 97) (TCR)
TCR beta: B4 TCR beta
TCR alpha: EVQLVESGGGEVQPGGSLRLSCAASGFLFSIYDMNWYRQAPGKEREWVAGITNNGYSTAYAESVKGRFTISRDNAKNTIYLQMSSLRAEDTAVYYCHADLTKAYDVEYAWGQGTLVTVKPGGGGSGGGGSEVQLVESGGGEVQPGGSLRLSCAASRSSGIDVMGWYRQAPGKERELVAEISGVGDTNYAASLADRFTVSRDNAKNTVYLQMSSLRAEDTAVYYCNAHSFLDLVGAWGQGTLVTVKPLEKTGGGGSAQKITQTQPGMFVQEKEAVTLDCTYDTSDPSYGLFWYKQPSSGEMIFLIYQGSYDQQNATEGRYSLNFQKARKSANLVISASQLGDSAMYFCAMSGGYTGGFKTIFGAGTRLFVKANIQNPDPAVYQLRDSKSSDKSVCLFTDFDSQTNVSQSKDSDVYITDKTVLDMRSMDFKSNSAVAWSNKSDFACANAFNNSIIPEDTFFPSSDVPCDVKLVEKSFETDTNLNFQNLLVIVLRILLLKVAGFNLLMTLRLWSS
notes: also called CD33-CLL1-TCR; CD33-CLL1 TCR
B7: VHH-TCR with a VHH added to the TRA separated by a 1xG4S; TRB-P2A-CD33.VHH-1xG4S-TRA (SEQ ID NO: 95) (TCR)
TCR beta: B4 TCR beta
TCR alpha: EVQLVESGGGEVQPGGSLRLSCAASRSSGIDVMGWYRQAPGKERELVAEISGVGDTNYAASLADRFTVSRDNAKNTVYLQMSSLRAEDTAVYYCNAHSFLDLVGAWGQGTLVTVKPGGGGSAQKITQTQPGMFVQEKEAVTLDCTYDTSDPSYGLFWYKQPSSGEMIFLIYQGSYDQQNATEGRYSLNFQKARKSANLVISASQLGDSAMYFCAMSGGYTGGFKTIFGAGTRLFVKANIQNPDPAVYQLRDSKSSDKSVCLFTDFDSQTNVSQSKDSDVYITDKTVLDMRSMDFKSNSAVAWSNKSDFACANAFNNSIIPEDTFFPSSDVPCDVKLVEKSFETDTNLNFQNLLVIVLRILLLKVAGFNLLMTLRLWSS
notes: also called VHH-TCR with 1G4S; VHH-TCR with one G4S
B8: VHH-TCR with a VHH added to the TRA separated by a 2xG4S; TRB-P2A-CD33.VHH-2xG4S-TRA (SEQ ID NO: 96) (TCR)
TCR beta: B4 TCR beta
TCR alpha: EVQLVESGGGEVQPGGSLRLSCAASRSSGIDVMGWYRQAPGKERELVAEISGVGDTNYAASLADRFTVSRDNAKNTVYLQMSSLRAEDTAVYYCNAHSFLDLVGAWGQGTLVTVKPGGGGSGGGGSAQKITQTQPGMFVQEKEAVTLDCTYDTSDPSYGLFWYKQPSSGEMIFLIYQGSYDQQNATEGRYSLNFQKARKSANLVISASQLGDSAMYFCAMSGGYTGGFKTIFGAGTRLFVKANIQNPDPAVYQLRDSKSSDKSVCLFTDFDSQTNVSQSKDSDVYITDKTVLDMRSMDFKSNSAVAWSNKSDFACANAFNNSIIPEDTFFPSSDVPCDVKLVEKSFETDTNLNFQNLLVIVLRILLLKVAGFNLLMTLRLWSS
notes: also called VHH-TCR with 2G4S; VHH-TCR with two G4Ss
B9: MAGEA4-reactive, HLA-A2-restricted TCR embedded with an scFv targeting human BCMA and a 2xG4S linker between the scFv and Va; TRB-P2A-BCMA.scFv-2xG4S-TRA (SEQ … (TCR)
TCR beta: B4 TCR beta
TCR alpha: DIVLTQSPPSLAMSLGKRATISCRASESVTILGSHLIHWYQQKPGQPPTLLIQLASNVQTGVPARFSGSGSRTDFTLTIDPVEEDDVAVYYCLQSRTIPRTFGGGTKLEIKGSTSGSGKPGSGEGSTKGQIQLVQSGPELKKPGETVKISCKASGYTFTDYSINWVKRAPGKGLKWMGWINTETREPAYAYDFRGRFAFSLETSASTAYLQINNLKYEDTATYFCALDYSYAMDYWGQGTSVTVSSGGGGSGGGGSAQKITQTQPGMFVQEKEAVTLDCTYDTSDPSYGLFWYKQPSSGEMIFLIYQGSYDQQNATEGRYSLNFQKARKSANLVISASQLGDSAMYFCAMSGGYTGGFKTIFGAGTRLFVKANIQNPDPAVYQLRDSKSSDKSVCLFTDFDSQTNVSQSKDSDVYITDKTVLDMRSMDFKSNSAVAWSNKSDFACANAFNNSIIPEDTFFPSSDVPCDVKLVEKSFETDTNLNFQNLLVIVLRILLLKVAGFNLLMTLRLWSS
notes: also called scFv-TCR; BCMA ScFv TCR

Experiments:
[1] = target: human CD33 on tumor cells (A549.CD33; A549 electroporated with CD33 mRNA; HL-60, Kasumi1, OCI-AML3) (human, UniProt P20138 18-364); assay: cell-based or functional assay
Sequence of human CD33 on tumor cells (A549.CD33; A549 electroporated with CD33 mRNA; HL-60, Kasumi1, OCI-AML3) (P20138 18-364): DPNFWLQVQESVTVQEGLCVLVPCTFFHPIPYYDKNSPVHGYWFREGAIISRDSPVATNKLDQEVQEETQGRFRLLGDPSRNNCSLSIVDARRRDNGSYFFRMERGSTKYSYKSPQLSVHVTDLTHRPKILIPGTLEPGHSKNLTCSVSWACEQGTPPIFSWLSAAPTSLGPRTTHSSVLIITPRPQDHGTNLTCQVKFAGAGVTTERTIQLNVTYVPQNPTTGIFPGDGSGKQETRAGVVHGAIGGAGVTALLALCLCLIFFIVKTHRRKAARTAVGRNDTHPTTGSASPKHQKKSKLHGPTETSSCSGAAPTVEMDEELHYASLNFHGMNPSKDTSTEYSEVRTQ

[2] = target: T1, PE labeled BCMA Fc reagent (AcroBio) (UniProt Q02223 1-54, PE label); assay: flow cytometry; PE labeled BCMA Fc staining of transduced T cells
T1 construct: not shown: Fc part of the bought reagent
T1 sequence (looked up): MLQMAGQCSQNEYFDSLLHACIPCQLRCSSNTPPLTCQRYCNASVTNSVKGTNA
From the text: T cells were interrogated for cell surface CAR expression using flow cytometry. T cells were stained using a PE labeled BCMA Fc reagent (AcroBio). […] IL2 secretion of scFv-TCR was greater than anti-BCMA CAR in coculture with medium and low BCMA expressing cell lines (FIG. 21C). […] For Live-cell imaging by IncuCyte was used to analyze tumor cell growth of HT1080.BCMA stably transduced with red reporter. The HT1080.BCMA cells grew in the presence of UTD T cells and MAGEA4 TCR-T cells.

[3] = target: MAGEA4 peptide presented by HLA-A2 on tumor cells (A549 transduced with MAGEA4 and HLA-A2; A549 pulsed with …); assay: cell-based or functional assay
[4] = target: T2, His labeled CD33-Fc reagent (Acros) (UniProt P20138 18-259); assay: flow cytometry; CD33-Fc staining of transduced T cells, APC labeled streptavidin secondary
T2 construct: Secondary staining was with APC labeled streptavidin; not shown: Fc part and His label of the bought reagent
T2 sequence (P20138 18-259): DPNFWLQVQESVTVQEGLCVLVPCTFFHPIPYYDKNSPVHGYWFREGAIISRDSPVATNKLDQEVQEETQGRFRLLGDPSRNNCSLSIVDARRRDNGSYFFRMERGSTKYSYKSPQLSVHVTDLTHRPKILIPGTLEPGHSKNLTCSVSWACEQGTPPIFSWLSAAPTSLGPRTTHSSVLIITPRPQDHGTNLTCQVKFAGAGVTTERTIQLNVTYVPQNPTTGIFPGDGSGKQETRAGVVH

Row | Binder | interferon gamma production [1] | binding result [4] | other results
1 | B1 | > 2 fold | – | –
2 | B2 | > 2 fold | – | –
3 | B3 | – | – | binding result [2]: binds
4 | B4 | > 2 fold | – | interferon gamma production [3]: ~3 fold
5 | B5 | – | – | interferon gamma production [3]: ~3 fold
6 | B6 | – | binds | –
7 | B7 | – | binds | –
8 | B8 | – | binds | –
9 | B9 | – | – | binding result [2]: binds
